In patent US20240066100A1 (published 2024):
Where a chain is given by its changes, count along the chain named.

T1: mouse IL-18BP (amino acids 31-194), biotinylated (mouse, UniProt Q9Z0M9 29-193, biotin on the AviTag (BirA ligase))
T1 construct: Secreted from Expi293 cells with H7 signal peptide (cleaved); The printed residue range is the same as for the human protein and may not fit the mouse entry; also called mIL-18BP
T1 sequence: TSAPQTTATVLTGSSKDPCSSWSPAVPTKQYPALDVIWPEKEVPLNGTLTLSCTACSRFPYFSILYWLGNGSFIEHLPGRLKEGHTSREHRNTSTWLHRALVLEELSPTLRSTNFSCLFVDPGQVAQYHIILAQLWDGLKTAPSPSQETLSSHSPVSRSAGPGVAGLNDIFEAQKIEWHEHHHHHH

T2: human IL-18Rα ectodomain (amino acids 19-329), biotinylated (human, UniProt Q13478 19-329, biotin on the AviTag (BirA ligase))
T2 construct: range 19-329; Secreted from insect cells with gp67 signal peptide (cleaved); also called hIL-18Rα; IL-18R1
T2 sequence: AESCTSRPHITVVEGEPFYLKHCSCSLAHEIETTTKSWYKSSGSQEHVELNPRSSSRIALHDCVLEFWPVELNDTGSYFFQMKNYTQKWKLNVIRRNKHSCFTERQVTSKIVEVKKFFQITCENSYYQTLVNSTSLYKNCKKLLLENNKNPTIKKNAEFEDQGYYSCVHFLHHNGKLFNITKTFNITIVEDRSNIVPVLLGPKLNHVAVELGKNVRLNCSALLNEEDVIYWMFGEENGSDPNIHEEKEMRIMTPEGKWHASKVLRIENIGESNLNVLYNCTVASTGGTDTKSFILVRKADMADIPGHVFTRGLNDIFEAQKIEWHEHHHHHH

B1: murine decoy-resistant IL-18 variant SEQ ID NO: 64 (ligand)
chain: NFGRLHCTTAVIRNINDQVLFVDKRQPVFEDMTDIDQSASEPQTRLIIYVYTDGRRRGKAVTLSVKDSKMSTLSCKNKIISFEEMDPPENIDDIQSDLIFFQKKVPGHDKMEFESSLYEGHFLACQKEDDAFKLILKKKDENGDKSVMFTLTNLHQS
notes: Engineered variant of mature mouse IL-18; tag and display linker not in chains; also called mE8; E8
B2: human decoy-resistant IL-18 variant SEQ ID NO: 34 (ligand)
chain: YFGKLESKLSVIRNLNDQVLFIDQGNRPLFEDMTDSDCRDNAPRTIFIISTYKDSQPRGKAVTISVKCEKISTLSCENKIISFKEMNPPDNIKDTKSDIIFFQRDVPGHKHKMQFESSSYEGYFLACEKERDLFKLILKKEDELGDRSIMFTVQNED
notes: Engineered variant of mature human IL-18; tag and display linker not in chains; also called hCS1; hCS-1
B3: human decoy-resistant IL-18 variant SEQ ID NO: 39 (ligand)
chain: B2 chain with K8R, T51K, S55K, G59A, K60Q, V153I
notes: Engineered variant of mature human IL-18; display linker not in chains; also called hA8
B4: human decoy-resistant IL-18 variant SEQ ID NO: 52 (ligand)
chain: B2 chain with Y1R, K8R
notes: Engineered variant of mature human IL-18; display linker not in chains; also called hH3
B5: human decoy-resistant IL-18 variant SEQ ID NO: 37 (ligand)
chain: B2 chain with Y1R, K53R, D105N, H111Y
notes: Engineered variant of mature human IL-18; tag and display linker not in chains; also called hCS4
B6: human decoy-resistant IL-18 variant SEQ ID NO: 36 (ligand)
chain: B2 chain with Y1R
notes: Engineered variant of mature human IL-18; tag and display linker not in chains; also called hCS3
B7: human decoy-resistant IL-18 variant SEQ ID NO: 57 (ligand)
chain: B2 chain with Y1R, L5H, K53R, Q103E, D105N, H111Y
notes: Engineered variant of mature human IL-18; display linker not in chains; also called hB9

How the values were obtained:
[1] = molecular target: T1, mouse IL-18BP (amino acids 31-194), …; assay: yeast binding isotherms and SPR
[2] = molecular target: T2, human IL-18Rα ectodomain (amino acids …); assay: on-yeast binding isotherm, flow cytometry; exponent missing in the cell, derived from c3/c4
[3] = molecular target: T2, human IL-18Rα ectodomain (amino acids …); assay: on-yeast binding isotherm, flow cytometry; exponent missing in the cell, derived from 20 µM/c4

| Binder | Kd [3] [nM] | other results |
| --- | --- | --- |
| B1 |  | Kd [1]: > 1000 nM |
| B2 |  | Kd [2]: 64.4 nM |
| B3 | 57.7 |  |
| B4 | 83.8 |  |
| B5 | 160 |  |
| B6 |  | Kd [2]: 113 nM |
| B7 | 127 |  |
